Measured values as given in US20240092925A1 (NANJING IASO BIOTECHNOLOGY, published 2024).

What was measured:
Test in all cases: phage ELISA
[1] = molecular target: T1, Recombinant biotinylated Human CD19 Protein-Fc (Kactus, CD2-HE121) (human, UniProt P15391 20-291, biotinylated (site not stated))
T1 construct: bought; also called CD19-Fc-Bio; Kactus-CD19-FC-Bio; not shown: Fc tag
T1 sequence (looked up): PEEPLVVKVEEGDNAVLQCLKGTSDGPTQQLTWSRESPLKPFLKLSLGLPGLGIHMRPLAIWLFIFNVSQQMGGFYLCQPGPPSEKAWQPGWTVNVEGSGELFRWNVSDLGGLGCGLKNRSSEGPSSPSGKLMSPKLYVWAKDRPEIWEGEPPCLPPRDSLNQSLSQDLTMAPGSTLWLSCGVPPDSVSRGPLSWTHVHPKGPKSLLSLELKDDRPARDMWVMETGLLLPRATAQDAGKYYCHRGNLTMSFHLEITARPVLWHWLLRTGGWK

[2] = molecular target: T2, Biotinylated Recombinant human BAFFR Protein (Kactus, BAF-HM40RB) (human, UniProt Q96RJ3 7-71, limits assumed, biotinylated (site not stated))
T2 construct: bought; also called Kactus-BAFFR-his-Bio; not shown: his tag

[3] = molecular target: T3, Streptavidin (Pierce, 21125) (UniProt P22629 37-163, limits assumed)
T3 construct: coated on the ELISA plate; non-related antigen; also called SA

Measured: binding result

T3 sequence (P22629 37-163 limits assumed): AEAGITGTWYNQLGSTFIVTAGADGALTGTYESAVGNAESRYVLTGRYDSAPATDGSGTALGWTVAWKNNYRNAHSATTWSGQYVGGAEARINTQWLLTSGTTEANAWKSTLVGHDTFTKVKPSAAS
T2 sequence (Q96RJ3 7-71 limits assumed): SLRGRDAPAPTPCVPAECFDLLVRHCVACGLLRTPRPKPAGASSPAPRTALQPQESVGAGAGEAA

B1: phage monoclonal clone #61 (single-domain antibody) (VHH)
VHH: QVQLVQSGAEVKKPGSSVKVSCKASGGTFSNYAISWVRQAPGQGLEWMGWISAYNGDTKYAQRLQGRVTMTTDTSTSTAYMELRNLRSDDTAVYYCARYESMSGQDIWGQGTLVTVSS
no binding: all assays above

B2: phage monoclonal clone #42 (single-domain antibody) (VHH)
VHH: EVQLLESGGGLVQPGGSLRLSCAASGFTFSHSAMGWVRQAPGKGLEWVSSIYARGGYTYYADSVKGRFTISRDNSKNTLYLQMNSLRAEDTAVYYCARGYHLEYMVSQDVWGQGTLVTVSS
no binding: all assays above

B3: phage monoclonal clone #62 (single-domain antibody) (VHH)
VHH: QVQLVQSGAEVKKPGESLRISCKASGYSFSNHWIGWVRQKPGKGLEWMGSVYPGDSDTRYSPSFQGHVTVSADKSMNTAYLQWSSLKTSDTAMYYCARGGTIDGDYGGRQDFWGQGTMVTVSS
no binding: all assays above

B4: phage monoclonal clone #60 (single-domain antibody) (VHH)
VHH: QVQLVESGGGLVQPGGSLRLSCAASGFTFSSYEMNWVRQAPGKGLEWVSYISSSGSTIYYADSVKGRFTISRDNAKNSLYLQMNSLRAEDTAVYYCARVAQREGDVWGKGTTVTVSS
no binding: all assays above
